The target in this assay is protective antigen PA63 heptameric pore (PA_(pore)) (Bacillus anthracis). As to the kind of experiment: cryo-EM structure.

One may read the stoichiometry N as the number of molecules, sites or subunits per partner or assembly. For “protective antigen PA63 heptameric pore (PA_(pore)) (natural protein)”, the stoichiometry N turned out to be 7.

(Values after article PMC8219829.)
